Numbered stars: 1 amine (or outer) side, 2 acyl side, 3 side chain; on linkers, the order of the positions; unused ones are H or OH. Bridge positions count the residues as written; N and C are the ends. Square brackets hold non-standard residues; d marks the D form. Side chains are listed from the residue outwards. Ends that are not written are not given here. * marks the point of attachment. C18 diacid = O=C(O)CCCCCCCCCCCCCCCCC(=O)*; γGlu = O=C(O)[C@H](CCC(=O)[*:2])N[*:1]; αMeF = C[C@](N)(Cc1ccccc1)C(=O)O; αMeS = C[C@](N)(CO)C(=O)O; Dab = NCC[C@H](N)C(=O)O; AEEA = NCCOCCOCC(=O)O; Aib = CC(C)(N)C(=O)O
T1: human calcitonin receptor (human, UniProt P30988 25-474)
T1 sequence (looked up): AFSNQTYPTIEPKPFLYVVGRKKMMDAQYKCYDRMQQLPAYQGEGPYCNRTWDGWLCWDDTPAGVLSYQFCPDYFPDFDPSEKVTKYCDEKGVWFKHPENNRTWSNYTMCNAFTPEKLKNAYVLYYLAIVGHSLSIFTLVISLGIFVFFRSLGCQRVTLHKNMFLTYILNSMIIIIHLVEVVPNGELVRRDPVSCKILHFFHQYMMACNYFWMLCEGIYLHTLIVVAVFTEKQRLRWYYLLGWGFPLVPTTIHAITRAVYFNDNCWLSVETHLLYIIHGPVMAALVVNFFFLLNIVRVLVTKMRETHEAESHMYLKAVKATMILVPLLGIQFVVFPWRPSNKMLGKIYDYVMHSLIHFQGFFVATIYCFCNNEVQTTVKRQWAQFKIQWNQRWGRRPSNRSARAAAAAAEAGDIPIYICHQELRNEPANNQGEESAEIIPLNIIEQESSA

T2: human amylin receptor (calcitonin receptor co-expressed with receptor activity modifying protein, RAMP3) (human, UniProt P30988 25-474; O60896 24-148)
T2 sequence (looked up) 1: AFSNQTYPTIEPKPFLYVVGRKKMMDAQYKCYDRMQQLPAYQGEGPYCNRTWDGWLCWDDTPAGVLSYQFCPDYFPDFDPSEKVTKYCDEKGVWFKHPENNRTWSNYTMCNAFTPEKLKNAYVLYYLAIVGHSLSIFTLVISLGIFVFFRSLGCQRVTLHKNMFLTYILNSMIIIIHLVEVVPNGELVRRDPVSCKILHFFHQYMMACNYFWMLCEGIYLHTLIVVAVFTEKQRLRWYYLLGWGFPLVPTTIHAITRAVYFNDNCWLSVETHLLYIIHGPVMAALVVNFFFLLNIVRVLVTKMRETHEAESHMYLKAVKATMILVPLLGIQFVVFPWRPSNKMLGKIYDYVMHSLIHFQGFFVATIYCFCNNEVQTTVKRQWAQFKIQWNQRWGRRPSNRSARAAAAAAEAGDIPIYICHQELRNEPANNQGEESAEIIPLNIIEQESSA
T2 sequence (looked up) 2: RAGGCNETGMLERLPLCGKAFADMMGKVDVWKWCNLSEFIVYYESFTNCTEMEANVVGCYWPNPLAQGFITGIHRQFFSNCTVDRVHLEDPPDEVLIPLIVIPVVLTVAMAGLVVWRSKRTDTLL


Tests used:
[1] = target: T1, human calcitonin receptor; assay: cell-based or functional assay
[2] = target: T2, human amylin receptor (calcitonin …); assay: cell-based or functional assay

Binder | EC50 (cAMP production) [1] | EC50 (cAMP production) [2] | Ratio (EC50 hCTR / EC50 hAMYR3) [2]
K([AEEA-AEEA-γGlu-C18 diacid])CNTATCATQRLANFLRHSSNN[αMeF]GPILPPTEVGSNTY-NH2 (disulfide 2-7; N-terminus assumed; SMILES CC[C@H](C)[C@H](NC(=O)[C@@H]1CCCN1C(=O)CNC(=O)[C@](C)(Cc1ccccc1)NC(=O)[C@H](CC(N)=O)NC(=O)[C@H](CC(N)=O)NC(=O)[C@H](CO)NC(=O)[C@H](CO)NC(=O)[C@H](Cc1c[nH]cn1)NC(=O)[C@H](CCCNC(=N)N)NC(=O)[C@H](CC(C)C)NC(=O)[C@H](Cc1ccccc1)NC(=O)[C@H](CC(N)=O)NC(=O)[C@H](C)NC(=O)[C@H](CC(C)C)NC(=O)[C@H](CCCNC(=N)N)NC(=O)[C@H](CCC(N)=O)NC(=O)[C@@H](NC(=O)[C@H](C)NC(=O)[C@@H]1CSSC[C@H](NC(=O)[C@@H](N)CCCCNC(=O)COCCOCCNC(=O)COCCOCCNC(=O)CC[C@H](NC(=O)CCCCCCCCCCCCCCCCC(=O)O)C(=O)O)C(=O)N[C@@H](CC(N)=O)C(=O)N[C@@H]([C@@H](C)O)C(=O)N[C@@H](C)C(=O)N[C@@H]([C@@H](C)O)C(=O)N1)[C@@H](C)O)C(=O)N[C@@H](CC(C)C)C(=O)N1CCC[C@H]1C(=O)N1CCC[C@H]1C(=O)N[C@H](C(=O)N[C@@H](CCC(=O)O)C(=O)N[C@H](C(=O)NCC(=O)N[C@@H](CO)C(=O)N[C@@H](CC(N)=O)C(=O)N[C@H](C(=O)N[C@@H](Cc1ccc(O)cc1)C(N)=O)[C@@H](C)O)C(C)C)[C@@H](C)O) [Peptide 17 (SEQ ID NO: 17)] | 7.08 nM | 0.365 nM | 19
K([γGlu-γGlu-C18 diacid])CNTATCATQRLANFLVHSSNN[αMeF]GPILPPTNVGSRTY-NH2 (disulfide 2-7; N-terminus assumed; SMILES CC[C@H](C)[C@H](NC(=O)[C@@H]1CCCN1C(=O)CNC(=O)[C@](C)(Cc1ccccc1)NC(=O)[C@H](CC(N)=O)NC(=O)[C@H](CC(N)=O)NC(=O)[C@H](CO)NC(=O)[C@H](CO)NC(=O)[C@H](Cc1c[nH]cn1)NC(=O)[C@@H](NC(=O)[C@H](CC(C)C)NC(=O)[C@H](Cc1ccccc1)NC(=O)[C@H](CC(N)=O)NC(=O)[C@H](C)NC(=O)[C@H](CC(C)C)NC(=O)[C@H](CCCNC(=N)N)NC(=O)[C@H](CCC(N)=O)NC(=O)[C@@H](NC(=O)[C@H](C)NC(=O)[C@@H]1CSSC[C@H](NC(=O)[C@@H](N)CCCCNC(=O)CC[C@H](NC(=O)CC[C@H](NC(=O)CCCCCCCCCCCCCCCCC(=O)O)C(=O)O)C(=O)O)C(=O)N[C@@H](CC(N)=O)C(=O)N[C@@H]([C@@H](C)O)C(=O)N[C@@H](C)C(=O)N[C@@H]([C@@H](C)O)C(=O)N1)[C@@H](C)O)C(C)C)C(=O)N[C@@H](CC(C)C)C(=O)N1CCC[C@H]1C(=O)N1CCC[C@H]1C(=O)N[C@H](C(=O)N[C@@H](CC(N)=O)C(=O)N[C@H](C(=O)NCC(=O)N[C@@H](CO)C(=O)N[C@@H](CCCNC(=N)N)C(=O)N[C@H](C(=O)N[C@@H](Cc1ccc(O)cc1)C(N)=O)[C@@H](C)O)C(C)C)[C@@H](C)O) [Peptide 21 (SEQ ID NO: 21)] | 3.41 nM | 0.136 nM | 25
{C18 diacid}-[γGlu][γGlu]GGGKCNTATCATQRLANFLVHSSNNFGPILPPTNVGSNTY-NH2 (disulfide 7-12) [Peptide 4 (SEQ ID NO: 4)] | 7.53 nM | 0.248 nM | 30
K([γGlu-C18 diacid])CNTATCATQRLANFLRHSSNN[αMeF]GPILPPTNVGSNTY-NH2 (disulfide 2-7; N-terminus assumed; SMILES CC[C@H](C)[C@H](NC(=O)[C@@H]1CCCN1C(=O)CNC(=O)[C@](C)(Cc1ccccc1)NC(=O)[C@H](CC(N)=O)NC(=O)[C@H](CC(N)=O)NC(=O)[C@H](CO)NC(=O)[C@H](CO)NC(=O)[C@H](Cc1c[nH]cn1)NC(=O)[C@H](CCCNC(=N)N)NC(=O)[C@H](CC(C)C)NC(=O)[C@H](Cc1ccccc1)NC(=O)[C@H](CC(N)=O)NC(=O)[C@H](C)NC(=O)[C@H](CC(C)C)NC(=O)[C@H](CCCNC(=N)N)NC(=O)[C@H](CCC(N)=O)NC(=O)[C@@H](NC(=O)[C@H](C)NC(=O)[C@@H]1CSSC[C@H](NC(=O)[C@@H](N)CCCCNC(=O)CC[C@H](NC(=O)CCCCCCCCCCCCCCCCC(=O)O)C(=O)O)C(=O)N[C@@H](CC(N)=O)C(=O)N[C@@H]([C@@H](C)O)C(=O)N[C@@H](C)C(=O)N[C@@H]([C@@H](C)O)C(=O)N1)[C@@H](C)O)C(=O)N[C@@H](CC(C)C)C(=O)N1CCC[C@H]1C(=O)N1CCC[C@H]1C(=O)N[C@H](C(=O)N[C@@H](CC(N)=O)C(=O)N[C@H](C(=O)NCC(=O)N[C@@H](CO)C(=O)N[C@@H](CC(N)=O)C(=O)N[C@H](C(=O)N[C@@H](Cc1ccc(O)cc1)C(N)=O)[C@@H](C)O)C(C)C)[C@@H](C)O) [Peptide 19 (SEQ ID NO: 19)] | 4.04 nM | 0.278 nM | 15

The remaining lines, values ahead:

EC50 (cAMP production) [1] | EC50 (cAMP production) [2] | Ratio (EC50 hCTR / EC50 hAMYR3) [2] | Binder
6.54 nM | 0.162 nM | 40 | K([γGlu-γGlu-C18 diacid])CNTATCATQRLANFLVHS[αMeS]NNFGPILPPTNVGSNTY-NH2 (disulfide 2-7) [Peptide 22 (SEQ ID NO: 22)]
83.8 nM | 3.75 nM | 22.3 | K([γGlu-C18 diacid])KCNTATCATQRLA[Dab]FL[Aib]HSSNNFGPILPPTEVGSNTY-NH2 (disulfide 3-8; N-terminus assumed; SMILES CC[C@H](C)[C@H](NC(=O)[C@@H]1CCCN1C(=O)CNC(=O)[C@H](Cc1ccccc1)NC(=O)[C@H](CC(N)=O)NC(=O)[C@H](CC(N)=O)NC(=O)[C@H](CO)NC(=O)[C@H](CO)NC(=O)[C@H](Cc1c[nH]cn1)NC(=O)C(C)(C)NC(=O)[C@H](CC(C)C)NC(=O)[C@H](Cc1ccccc1)NC(=O)[C@H](CCN)NC(=O)[C@H](C)NC(=O)[C@H](CC(C)C)NC(=O)[C@H](CCCNC(=N)N)NC(=O)[C@H](CCC(N)=O)NC(=O)[C@@H](NC(=O)[C@H](C)NC(=O)[C@@H]1CSSC[C@H](NC(=O)[C@H](CCCCN)NC(=O)[C@@H](N)CCCCNC(=O)CC[C@H](NC(=O)CCCCCCCCCCCCCCCCC(=O)O)C(=O)O)C(=O)N[C@@H](CC(N)=O)C(=O)N[C@@H]([C@@H](C)O)C(=O)N[C@@H](C)C(=O)N[C@@H]([C@@H](C)O)C(=O)N1)[C@@H](C)O)C(=O)N[C@@H](CC(C)C)C(=O)N1CCC[C@H]1C(=O)N1CCC[C@H]1C(=O)N[C@H](C(=O)N[C@@H](CCC(=O)O)C(=O)N[C@H](C(=O)NCC(=O)N[C@@H](CO)C(=O)N[C@@H](CC(N)=O)C(=O)N[C@H](C(=O)N[C@@H](Cc1ccc(O)cc1)C(N)=O)[C@@H](C)O)C(C)C)[C@@H](C)O) [Peptide 156 (SEQ ID NO: 156)]
0.589 nM | 0.238 nM | 2 | K([γGlu-γGlu-C18 diacid])CNTATCATQRLANFLVHSSNN[αMeF]GPILPPTEVGSNTY-NH2 (disulfide 2-7; N-terminus assumed; SMILES CC[C@H](C)[C@H](NC(=O)[C@@H]1CCCN1C(=O)CNC(=O)[C@](C)(Cc1ccccc1)NC(=O)[C@H](CC(N)=O)NC(=O)[C@H](CC(N)=O)NC(=O)[C@H](CO)NC(=O)[C@H](CO)NC(=O)[C@H](Cc1c[nH]cn1)NC(=O)[C@@H](NC(=O)[C@H](CC(C)C)NC(=O)[C@H](Cc1ccccc1)NC(=O)[C@H](CC(N)=O)NC(=O)[C@H](C)NC(=O)[C@H](CC(C)C)NC(=O)[C@H](CCCNC(=N)N)NC(=O)[C@H](CCC(N)=O)NC(=O)[C@@H](NC(=O)[C@H](C)NC(=O)[C@@H]1CSSC[C@H](NC(=O)[C@@H](N)CCCCNC(=O)CC[C@H](NC(=O)CC[C@H](NC(=O)CCCCCCCCCCCCCCCCC(=O)O)C(=O)O)C(=O)O)C(=O)N[C@@H](CC(N)=O)C(=O)N[C@@H]([C@@H](C)O)C(=O)N[C@@H](C)C(=O)N[C@@H]([C@@H](C)O)C(=O)N1)[C@@H](C)O)C(C)C)C(=O)N[C@@H](CC(C)C)C(=O)N1CCC[C@H]1C(=O)N1CCC[C@H]1C(=O)N[C@H](C(=O)N[C@@H](CCC(=O)O)C(=O)N[C@H](C(=O)NCC(=O)N[C@@H](CO)C(=O)N[C@@H](CC(N)=O)C(=O)N[C@H](C(=O)N[C@@H](Cc1ccc(O)cc1)C(N)=O)[C@@H](C)O)C(C)C)[C@@H](C)O) [Peptide 23 (SEQ ID NO: 23)]

From patent US20220204580A1 (AstraZeneca / MedImmune, published 2022)
